Source: article PMC4260256, “A novel serine hydroxymethyltransferase from Arthrobacter nicotianae: characterization and improving catalytic efficiency by rational design” (BMC Biotechnology, 2014)

Tested on: NC(C(=O)O)C(O)c1ccccc1
Assay: purified protein
Settings: pH 7.8; 40.0 °C

## AnSHMT (Glutamicibacter nicotianae; I249L)
  Km: 61.95 ± 0.13 mM
  kcat/Km: 76.8 M⁻¹ s⁻¹
